The chains are these.
B1: S300 (peptide)
chain: DWLQRNANFYDWFVAEL
modifications: not fully specified; C-terminal Lig′, linker 14
B2: S362 (peptide)
peptide: XGSLDESFYDWFERQLGKK
modifications: not fully specified; N-terminal Lig′, linker 24
notes: N-N dimer
B3: S361 (peptide)
peptide: GSLDESFYDWFERQLGKKX
modifications: not fully specified; C-terminal Lig′, linker 24
notes: C-C dimer
B4: S374 (peptide)
peptide: XGSLDESFYDWFERQLGKK
modifications: not fully specified; N-terminal Ald, linker 17
notes: N-N dimer
B5: S376 (peptide)
peptide: XGSLDESFYDWFERQLGKK
modifications: N-terminal Ald, linker 19
notes: N-N dimer
B6: S170 (peptide)
peptide: CGFHENFYDWFVRQVSKK
modifications: also: N-N dimer, two chains linked at Cys1
notes: N-N dimer
B7: S381 (peptide)
peptide: EEDWLQRNANFYDWFVAELX
modifications: C-terminal Lig′ (printed LiG′), linker 23
notes: C-C dimer
B8: G33 (peptide)
peptide: GIISQSCPESFYDWFAGQVSDPWWCW
notes: Formula 1, Site 1 peptide; also called H2CA-4-G9-IGFR; S326
B9: RP9 (peptide)
peptide: GSLDESFYDWFERQLG
notes: Formula 1, Site 1 peptide; also called H2C-PD1-IGFR

No end group written: not given here.

One assay deals with T1, human insulin receptor (HIR) (human, UniProt P06213 28-1382, limits assumed).
T1 construct: solubilized receptor from transfected cells
The assay is described as follows: 125I-insulin competition, solubilized HIR.
What is called Kd is the concentration at which binding is half-saturated. Low values mean tighter binding, high ones weaker binding. In turn, B1 had a Kd of 50 nM. As for B2, binding was characterised by a dissociation constant (Kd) of 110 nM. Molecule B3 registered a Kd of 2200 nM. The molecule B4 registered a Kd of 180 nM. With B5, the affinity, expressed as Kd, was 160 nM.

Take B6: the affinity, expressed as Kd, was 700 nM. Against the preceding molecule, the Kd is about 4.4-fold higher.

B7 returned a dissociation constant (Kd) of 120 nM.

For another assay, the target named is T2, soluble human insulin receptor-immunoglobulin heavy chain chimera (human, UniProt P06213 28-956, limits assumed).
T2 construct: extracellular domain; also called sIR-Fc; slR-Fc; not shown: immunoglobulin heavy chain constant domains
Put plainly: ratio of IC50 on rhIGF-1R (TR-FRET vs b-20E2) to IC50 on sIR-Fc (FP vs FITC-RP9). (In general: Time-resolved FRET reads energy transfer from a long-lived donor to a nearby acceptor.)
For B8, the “Binding Ratio IGF-1R/IR” value is 1.3. For B9, the “Binding Ratio IGF-1R/IR” value worked out at 1.4.

The values above are taken from patent US6875741 (Novo Nordisk, dated 2005).
